Key:
[1] = test system: glutathione reductase (GR); assay: stopped-flow, NAD; assay type: biochemical; details: read-out: apparent KM; 180 µM NAD(P)H, 10 nM enzyme, 50 to 250 µM HOSCN, 100 mM sodium phosphate pH 7.4, aerobic
purified protein = substrate: O=S(=O)(O)CCNCl; assay: purified protein; details: 100 µM NADH, 10 µM enzyme, 20 mM HEPES, 100 mM NaCl pH 7, anaerobic

| Molecule | Km [1] [µM] | Km (purified protein) [µM] | kcat (purified protein) [s⁻¹] |
| --- | --- | --- | --- |
| N#CSO [HOSCN, hypothiocyanous acid] | 81 |  |  |
| RclA (Escherichia coli K-12) (protein) MNKYQAVIIGFGKAGKTLAVTLAKAGWRVALIEQSNAMYGGTCINIGCIPTKTLVHDAQQHTDFVRAIQRKNEVVNFLRNKNFHNLADMPNIDVIDGQAEFINNHSLRVHRPEGNLEIHGEKIFINTGAQTVVPPIPGITTTPGVYDSTGLLNLKELPGHLGILGGGYIGVEFASMFANFGSKVTILEAASLFLPREDRDIADNIATILRDQGVDIILNAHVERISHHENQVQVHSEHAQLAVDALLIASGRQPATASLHPENAGIAVNERGAIVVDKRLHTTADNIWAMGDVTGGLQFTYISLDDYRIVRDELLGEGKRSTDDRKNVPYSVFMTPPLSRVGMTEEQARESGADIQVVTLPVAAIPRARVMNDTRGVLKAIVDNKTQRMLGASLLCVDSHEMINIVKMVMDAGLPYSILRDQIFTHPSMSESLNDLFSLVK |  | 12700 | 33 |

From PMC9335216 (Proceedings of the National Academy of Sciences of the …, 2022)
